Experimental data as given in doi:10.1101/2024.10.14.618141 (bioRxiv, 2024).

Experiments:
Assay in all cases: pull-down
[1] = target: PAF1 complex (five-subunit PAF1C, WT) (human, UniProt Q6PD62;Q6P1J9;Q8WVC0;Q8N7H5;Q9GZS3)
[2] = target: PAF1C-YY/AA (PAF1C containing CDC73-YY/AA) (human, UniProt Q6PD62;Q6P1J9;Q8WVC0;Q8N7H5;Q9GZS3, Y290A | Y293A)
[3] = target: CDK12/Cyclin K complex, full-length (WT) CDK12 (human, UniProt Q9NYV4;O75909)
Sequence of CDK12/Cyclin K complex, full-length (WT) CDK12 (Q9NYV4 whole entry, one chain of several): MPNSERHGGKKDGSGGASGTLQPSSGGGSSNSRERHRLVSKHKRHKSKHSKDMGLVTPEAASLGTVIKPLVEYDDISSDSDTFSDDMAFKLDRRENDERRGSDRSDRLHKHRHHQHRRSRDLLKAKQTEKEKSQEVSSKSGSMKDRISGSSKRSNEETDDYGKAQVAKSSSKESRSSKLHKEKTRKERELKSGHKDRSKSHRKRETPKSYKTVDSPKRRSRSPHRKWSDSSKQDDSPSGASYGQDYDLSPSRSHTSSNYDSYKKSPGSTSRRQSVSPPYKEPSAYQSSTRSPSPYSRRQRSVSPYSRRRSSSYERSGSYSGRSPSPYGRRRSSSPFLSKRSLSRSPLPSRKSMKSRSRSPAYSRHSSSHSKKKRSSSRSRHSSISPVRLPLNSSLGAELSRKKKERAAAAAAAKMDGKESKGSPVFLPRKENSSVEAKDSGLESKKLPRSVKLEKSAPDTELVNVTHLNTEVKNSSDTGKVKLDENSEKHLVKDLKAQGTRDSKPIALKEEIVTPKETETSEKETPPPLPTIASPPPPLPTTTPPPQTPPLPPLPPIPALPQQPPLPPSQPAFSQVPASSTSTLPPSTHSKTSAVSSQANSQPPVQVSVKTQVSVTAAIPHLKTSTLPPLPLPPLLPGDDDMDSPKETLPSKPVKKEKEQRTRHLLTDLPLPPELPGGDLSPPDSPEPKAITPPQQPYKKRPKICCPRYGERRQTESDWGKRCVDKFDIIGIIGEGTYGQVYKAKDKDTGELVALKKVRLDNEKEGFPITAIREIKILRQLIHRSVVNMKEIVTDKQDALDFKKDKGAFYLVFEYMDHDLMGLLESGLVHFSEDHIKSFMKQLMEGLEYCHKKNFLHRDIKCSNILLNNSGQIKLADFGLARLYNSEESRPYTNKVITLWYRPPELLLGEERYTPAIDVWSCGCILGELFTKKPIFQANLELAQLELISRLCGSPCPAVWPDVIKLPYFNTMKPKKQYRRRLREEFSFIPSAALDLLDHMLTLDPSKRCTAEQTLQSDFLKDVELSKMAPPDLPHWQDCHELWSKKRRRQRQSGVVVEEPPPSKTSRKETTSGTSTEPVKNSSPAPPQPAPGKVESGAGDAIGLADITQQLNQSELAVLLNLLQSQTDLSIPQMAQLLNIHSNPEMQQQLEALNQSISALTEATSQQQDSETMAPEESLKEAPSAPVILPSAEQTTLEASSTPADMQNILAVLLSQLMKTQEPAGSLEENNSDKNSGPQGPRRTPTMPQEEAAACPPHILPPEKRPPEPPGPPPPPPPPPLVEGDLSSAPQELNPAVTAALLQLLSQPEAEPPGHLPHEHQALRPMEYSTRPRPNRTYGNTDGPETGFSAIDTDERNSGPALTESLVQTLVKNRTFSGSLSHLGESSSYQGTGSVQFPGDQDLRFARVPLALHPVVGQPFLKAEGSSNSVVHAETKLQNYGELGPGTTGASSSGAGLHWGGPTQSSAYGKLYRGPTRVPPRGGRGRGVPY

| binding result [1] | binding result [2] | binding result [3] | Binder |
| --- | --- | --- | --- |
| binds | binds | – | CDK12(KiD)/Cyclin K complex (complex) chain 1: not shown chain 2: MKENKENSSPSVTSANLDHTKPCWYWDKKDLAHTPSQLEGLDPATEARYRREGARFIFDVGTRLGLHYDTLATGIIYFHRFYMFHSFKQFPRYVTGACCLFLAGKVEETPKKCKDIIKTARSLLNDVQFGQFGDDPKEEVMVLERILLQTIKFDLQVEHPYQFLLKYAKQLKGDKNKIQKLVQMAWTFVNDSLCTTLSLQWEPEIIAVAVMYLAGRLCKFEIQEWTSKPMYRRWWEQFVQDVPVDVLEDICHQILDLYSQGKQQMPHHTPHQLQQPPSLQPTPQVPQVQQSQPSQSSEPSQPQQKDPQQPAQQQQPAQQPKKPSPQPSSPRQVKRAVVVSPKEENKAAEPPPPKIPKIETTHPPLPPAHPPPDRKPPLAAALGEAEPPGPVDATDLPKVQIPPPAHPAPVHQPPPLPHRPPPPPPSSYMTGMSTTSSYMSGEGYQSLQSMMKTEGPSYGALPPAYGPPAHLPYHPHVYPPNPPPPPVPPPPASFPPPAIPPPTPGYPPPPPTYNPNFPPPPPRLPPTHAVPPHPPPGLGLPPASYPPPAVPPGGQPPVPPPIPPPGMPPVGGLGRAAWMR |
| – | – | binds | Flag-GST-RPB1-CTD(1586-1971) (domain or fragment) GGAMSPSYSPTSPAYEPRSPGGYTPQSPSYSPTSPSYSPTSPSYSPTSPNYSPTSPSYSPTSPSYSPTSPSYSPTSPSYSPTSPSYSPTSPSYSPTSPSYSPTSPSYSPTSPSYSPTSPSYSPTSPSYSPTSPSYSPTSPSYSPTSPSYSPTSPSYSPTSPNYSPTSPNYTPTSPSYSPTSPSYSPTSPNYTPTSPNYSPTSPSYSPTSPSYSPTSPSYSPSSPRYTPQSPTYTPSSPSYSPSSPSYSPTSPKYTPTSPSYSPSSPEYTPTSPKYSPTSPKYSPTSPKYSPTSPTYSPTTPKYSPTSPTYSPTSPVYTPTSPKYSPTSPTYSPTSPKYSPTSPTYSPTSPKGSTYSPTSPGYSPTSPTYSLTSPAISPDDSDEEN |
